Experimental data reported in patent US20200317768A1 (published 2020).
Residue numbers refer to the chain shown, from its start. In names and notes the source's numbering stands.

B1: MS1032LO06-PK55 (M103205H795-PK55/M103202L889-SK1) (antibody, human IgG1, kappa)
heavy: QVTLKESGPVLVKPTETLTLTCTVSGIDLSHDDISWVRQAPGKGLEWVGIISYAGSTYYASWAKGRLTISKDTSKNQVVLTMTNMDPVDTATYYCARGVPAYSHGGDLWGQGTLVTVSSASTKGPSVFPLAPSSKSTSGGTAALGCLVKDYFPEPVTVSWNSGALTSGVHTFPAVLQSSGLYSLSSVVTVPSSSLGTQTYICNVNHKPSNTKVDKKVEPKSCDKTHTCPPCPAPELLNGPSVFLFPPKPKDTLMISRTPEVTCVVVDVSDEDPEVKFNWYVDGVEVHNAKTKPREEQYNSTYRVVSVLTVLHRDWLNGKEYKCKVSNKALPKPIEKTISKAKGQRREPQVYTLPPSREEMTKNQVSLTCLVKGFYPSDIAVEWESNGQPENNYKTTPPVLDSDGSFFLYSKLTVDKSRWQQGNVFSCSVMHEALHNHYTQKSLSLSP
light: DIVMTQSPATLSLSPGERATLSCTSSQSVYHANWLSWFQQKPGQPPKLLIYWASTLAYGVPSRFSGSGSGTDFTLTISSLQPEDAATYYCAGGYGGGRYAFGQGTKVEIKRTVAAPSVFIFPPSDEQLKSGTASVVCLLNNFYPREAKVQWKVDNALQSGNSQESVTEQDSKDSTYSLSSTLTLSKADYEKHKVYACEVTHQGLSSPVTKSFNRGEC
notes: CH PK55 = SG1 with G236N/H268D/Q311R/A330K/P343R (EU numbering); also called MS103205H795-PK55
B2: MS1032LO06-PK56 (M103205H795-PK56/M103202L889-SK1) (antibody, human IgG1, kappa)
heavy: B1 heavy with D415R
light: B1 light
notes: CH PK56 = SG1 with G236N/H268D/Q311R/A330K/P343R/D413R (EU numbering); also called MS103205H795-PK56
B3: MS1032LO06-PK57 (M103205H795-PK57/M103202L889-SK1) (antibody, human IgG1, kappa)
heavy: B1 heavy with R345P, N386R, D415R
light: B1 light
notes: CH PK57 = SG1 with G236N/H268D/Q311R/A330K/N384R/D413R (EU numbering); also called MS103205H795-PK57

Target: T1, cynomolgus monkey FcγRIIa2 extracellular domain, C-terminal His-tag (cynomolgus monkey)
T1 construct: also called cyno FcγRIIa2; FcgRIIa2; not shown: His-tag added to the C-terminus
T1 chain: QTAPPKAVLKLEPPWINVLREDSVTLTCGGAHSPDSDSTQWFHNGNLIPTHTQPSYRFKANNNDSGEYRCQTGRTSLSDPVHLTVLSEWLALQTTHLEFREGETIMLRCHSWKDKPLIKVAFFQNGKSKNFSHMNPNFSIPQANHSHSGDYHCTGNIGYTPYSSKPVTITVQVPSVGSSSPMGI
Experiment: SPR; KD of SG1 divided by KD of variant;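 also: relative to parent M103205H795-SG1 carrying the SG1 human heavy chain constant region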
Procedure: (§1) The kinetic analysis of interactions between these antibodies and FcγR was carried out using BIACORE® T200 or BIACORE® 4000 (GE Healthcare). HBS-EP+ (GE Healthcare) was used as the running buffer, and the measurement temperature was set to 25° C. A chip produced by immobilizing Protein A. Protein A/G or mouse anti-human IgG kappa light chain (BD Biosciences) onto a Series S Sensor Chip CM4 or CM5 (GE Healthcare) by the amine-coupling method was used. […] After the measurement, the antibody captured on the chip was washed off by allowing reaction with 10 mM glycine-HCl, pH1.5 and 25 mM NaOH so that the chip was regenerated and used repeatedly. The sensorgrams obtained as measurement results were analyzed by the 1:1 Langmuir binding model using the BIACORE® Evaluation Software to calculate the binding rate constant ka (L/mol/s) and dissociation rate constant kd (l/s), and the dissociation constant KD (mol/L) was calculated from these values. […] Regarding such interactions, KD values were calculated using the following 1:1 binding model described in BIACORE® T100 Software Handbook BR1006-48 Edition AE.

Row | Binder | KD fold (SG1 = 1) [fold]
1 | B1 | 4.1
2 | B2 | 3.1
3 | B3 | 2.8

Target: T2, cynomolgus monkey FcγRIIb extracellular domain, C-terminal His-tag (cynomolgus monkey)
T2 construct: also called cyno FcγRIIb; cynoFcγRIIb; not shown: His-tag added to the C-terminus
T2 chain: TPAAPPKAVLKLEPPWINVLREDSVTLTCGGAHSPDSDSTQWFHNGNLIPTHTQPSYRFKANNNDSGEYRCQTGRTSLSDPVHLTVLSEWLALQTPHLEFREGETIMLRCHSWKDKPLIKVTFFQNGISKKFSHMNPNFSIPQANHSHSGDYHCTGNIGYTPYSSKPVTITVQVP
Experiment: SPR; KD of SG1 divided by KD of variant;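 also: relative to parent M103205H795-SG1 carrying the SG1 human heavy chain constant region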
Procedure: as §1

Row | Binder | KD fold (SG1 = 1) [fold]
4 | B1 | 5.4
5 | B2 | 3.9
6 | B3 | 3.8

Target: T3, human FcγRIIaR extracellular domain, C-terminal His-tag (human, UniProt P12318 34-217)
T3 construct: also called human FcγRIIa (type R); FcgRIIaR; not shown: His-tag added to the C-terminus
T3 chain: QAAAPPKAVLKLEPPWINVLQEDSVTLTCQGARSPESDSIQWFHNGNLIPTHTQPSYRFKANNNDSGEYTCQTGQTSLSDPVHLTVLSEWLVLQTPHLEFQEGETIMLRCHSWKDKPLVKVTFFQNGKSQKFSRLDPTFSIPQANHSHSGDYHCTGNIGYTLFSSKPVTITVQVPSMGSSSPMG
Experiment: SPR; KD of SG1 divided by KD of variant;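 also: relative to parent M103205H795-SG1 carrying the SG1 human heavy chain constant region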
Procedure: as §1

Row | Binder | KD fold (SG1 = 1) [fold]
7 | B1 | 0.7
8 | B2 | 0.5
9 | B3 | 0.5

Target: T4, cynomolgus monkey FcγRIIIaS extracellular domain, C-terminal His-tag (cynomolgus monkey, UniProt A3RFZ7 21-206 (rhesus entry))
T4 construct: also called cyno FcγRIIIaS; FcgRIIIaS; not shown: His-tag added to the C-terminus
Experiment: SPR; KD of SG1 divided by KD of variant;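 also: relative to parent M103205H795-SG1 carrying the SG1 human heavy chain constant region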
Procedure: as §1

T4 sequence (A3RFZ7 21-206): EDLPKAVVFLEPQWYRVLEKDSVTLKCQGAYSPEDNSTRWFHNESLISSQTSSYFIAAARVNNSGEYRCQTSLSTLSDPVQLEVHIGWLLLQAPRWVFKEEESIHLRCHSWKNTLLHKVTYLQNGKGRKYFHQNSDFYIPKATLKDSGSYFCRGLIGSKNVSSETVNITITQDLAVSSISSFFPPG

Row | Binder | KD fold (SG1 = 1) [fold]
10 | B1 | 0.08
11 | B2 | 0.06
12 | B3 | 0.06

Target: T5, human FcγRIIaH extracellular domain, C-terminal His-tag (human, UniProt P12318 34-217)
T5 construct: also called human FcγRIIa (type H); FcgRIIaH; not shown: His-tag added to the C-terminus
T5 sequence: T3 chain with R134H
Experiment: SPR; KD of SG1 divided by KD of variant
Procedure: as §1

Row | Binder | KD fold (SG1 = 1) [fold]
13 | B1 | 1.1
14 | B2 | 0.8
15 | B3 | 0.7

Target: T6, cynomolgus monkey FcγRIIa3 extracellular domain, C-terminal His-tag (cynomolgus monkey)
T6 construct: also called cyno FcγRIIa3; FcgRIIa3; not shown: His-tag added to the C-terminus
T6 chain: T1 chain with K127I, N130K, H133P, Q142R
Experiment: SPR; KD of SG1 divided by KD of variant
Procedure: as §1

Row | Binder | KD fold (SG1 = 1) [fold]
16 | B1 | 4.3
17 | B2 | 3.5
18 | B3 | 2.7

Target: T7, human FcγRIIIaV extracellular domain, C-terminal His-tag (human, UniProt P08637 17-208)
T7 construct: also called FcgRIIIaV; not shown: His-tag added to the C-terminus
Experiment: SPR; KD of SG1 divided by KD of variant
Procedure: as §1

T7 sequence (P08637 17-208 F176V): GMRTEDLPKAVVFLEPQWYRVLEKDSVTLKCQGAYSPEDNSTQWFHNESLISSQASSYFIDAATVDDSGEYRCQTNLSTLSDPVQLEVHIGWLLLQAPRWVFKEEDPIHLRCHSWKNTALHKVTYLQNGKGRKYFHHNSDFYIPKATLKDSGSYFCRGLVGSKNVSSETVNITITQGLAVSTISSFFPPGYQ

Row | Binder | KD fold (SG1 = 1) [fold]
19 | B1 | 0.05
20 | B2 | 0.06
21 | B3 | 0.03

Target: T8, human FcγRIIb extracellular domain, C-terminal His-tag (human, UniProt P31994 43-217)
T8 construct: also called FcgRIIb; not shown: His-tag added to the C-terminus
T8 sequence: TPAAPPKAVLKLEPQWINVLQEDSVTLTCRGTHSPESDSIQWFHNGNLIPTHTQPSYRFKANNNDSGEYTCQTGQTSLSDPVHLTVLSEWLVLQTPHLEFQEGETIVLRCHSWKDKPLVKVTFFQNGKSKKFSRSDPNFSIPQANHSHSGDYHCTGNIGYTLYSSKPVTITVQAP
Experiment: SPR; KD of SG1 divided by KD of variant
Procedure: as §1

Row | Binder | KD fold (SG1 = 1) [fold]
22 | B1 | 6.3
23 | B2 | 4.7
24 | B3 | 4.1

Target: T4, cynomolgus monkey FcγRIIIaS …
Experiment: SPR (BIACORE), antibody captured, soluble FcgR as analyte, 25C

Row | Binder | Kd [µM]
25 | B1 | 3.3
26 | B2 | 4.4
27 | B3 | 4.3

Target: T8, human FcγRIIb extracellular domain, …
Experiment: as above

Row | Binder | Kd [µM]
28 | B1 | 0.76
29 | B2 | 1
30 | B3 | 1.2
